Assays:
[1] = biological target: fibrinogen binding protein encoded from pSE100 (581 aa part of protein FIG of Staphylococcus epidermidis strain HB) (Staphylococcus epidermidis strain HB) (UniProt O70022); assay: inhibition of pSE100 phage panning on fibrinogen-coated wells by the soluble ligand; phage eluted at pH 1.8
human IgG [2] = assay: phage panning on coated protein in microtiter wells; last wash
Vitronectin [3] = assay: as above
Transferrin [4] = assay: as above
IgA [5] = assay: as above
[6] = biological target: Bovine serum albumin (fraction V, ria grade) (bovine) (UniProt P02769); assay: as above
Collagen type I [7] = assay: as above
[8] = biological target: Human serum albumin (human) (UniProt P02768); assay: as above
Elastin [9] = assay: as above
Fibronectin [10] = assay: as above
Human fibrinogen (human) [11] = biological target: Human fibrinogen (human) (UniProt P02671); assay: as above
Lactoferrin [12] = assay: as above
α2macroglobulin [13] = assay: as above
Pepsin [14] = assay: as above
human IgG [15] = assay: phage panning on coated protein in microtiter wells; bound phage eluted at pH 1.8
Vitronectin [16] = assay: as above
Transferrin [17] = assay: as above
IgA [18] = assay: as above
[19] = biological target: Bovine serum albumin (fraction V, ria grade) (bovine) (UniProt P02769); assay: as above
Collagen type I [20] = assay: as above
[21] = biological target: Human serum albumin (human) (UniProt P02768); assay: as above
Elastin [22] = assay: as above
Fibronectin [23] = assay: as above
Human fibrinogen (human) [24] = biological target: Human fibrinogen (human) (UniProt P02671); assay: as above
Lactoferrin [25] = assay: as above
α2macroglobulin [26] = assay: as above
Pepsin [27] = assay: as above

UniProt O70022, sequence (O70022 75-656): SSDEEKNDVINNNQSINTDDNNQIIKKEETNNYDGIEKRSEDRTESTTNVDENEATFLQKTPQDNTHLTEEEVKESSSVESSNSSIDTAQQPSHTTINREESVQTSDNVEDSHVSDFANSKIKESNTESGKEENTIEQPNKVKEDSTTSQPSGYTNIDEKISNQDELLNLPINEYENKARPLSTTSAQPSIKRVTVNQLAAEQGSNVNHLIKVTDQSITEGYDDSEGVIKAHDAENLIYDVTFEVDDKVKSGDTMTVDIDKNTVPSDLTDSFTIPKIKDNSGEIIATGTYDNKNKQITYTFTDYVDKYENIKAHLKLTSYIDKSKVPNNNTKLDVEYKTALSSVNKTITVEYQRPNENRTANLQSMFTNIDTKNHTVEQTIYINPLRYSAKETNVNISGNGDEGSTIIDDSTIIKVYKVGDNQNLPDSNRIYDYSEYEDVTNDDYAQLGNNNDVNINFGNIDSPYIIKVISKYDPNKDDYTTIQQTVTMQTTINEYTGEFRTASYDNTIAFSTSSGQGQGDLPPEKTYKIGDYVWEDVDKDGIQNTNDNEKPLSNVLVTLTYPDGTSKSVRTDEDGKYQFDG
UniProt P02671, sequence (P02671 other isoform, or with tags, fused parts or gaps limits assumed, chain 1 of 3): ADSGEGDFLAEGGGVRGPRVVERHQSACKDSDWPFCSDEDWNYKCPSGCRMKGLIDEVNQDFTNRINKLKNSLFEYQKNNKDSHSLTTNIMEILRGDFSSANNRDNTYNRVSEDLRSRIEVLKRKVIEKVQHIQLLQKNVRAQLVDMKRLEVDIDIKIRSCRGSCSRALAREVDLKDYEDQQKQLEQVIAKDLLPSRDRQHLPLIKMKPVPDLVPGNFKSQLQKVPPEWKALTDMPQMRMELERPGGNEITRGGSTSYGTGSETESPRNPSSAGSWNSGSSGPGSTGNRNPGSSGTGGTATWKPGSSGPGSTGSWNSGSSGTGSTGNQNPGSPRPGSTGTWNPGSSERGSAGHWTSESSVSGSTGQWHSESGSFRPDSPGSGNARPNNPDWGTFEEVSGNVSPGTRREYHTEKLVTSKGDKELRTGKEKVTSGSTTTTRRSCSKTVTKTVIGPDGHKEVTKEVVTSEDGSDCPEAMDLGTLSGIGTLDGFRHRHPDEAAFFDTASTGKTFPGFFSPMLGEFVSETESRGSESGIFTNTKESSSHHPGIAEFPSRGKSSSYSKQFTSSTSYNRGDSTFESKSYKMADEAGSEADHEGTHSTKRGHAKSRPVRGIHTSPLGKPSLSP
UniProt P02671, sequence (P02675 31-491 limits assumed, chain 2 of 3, further chain): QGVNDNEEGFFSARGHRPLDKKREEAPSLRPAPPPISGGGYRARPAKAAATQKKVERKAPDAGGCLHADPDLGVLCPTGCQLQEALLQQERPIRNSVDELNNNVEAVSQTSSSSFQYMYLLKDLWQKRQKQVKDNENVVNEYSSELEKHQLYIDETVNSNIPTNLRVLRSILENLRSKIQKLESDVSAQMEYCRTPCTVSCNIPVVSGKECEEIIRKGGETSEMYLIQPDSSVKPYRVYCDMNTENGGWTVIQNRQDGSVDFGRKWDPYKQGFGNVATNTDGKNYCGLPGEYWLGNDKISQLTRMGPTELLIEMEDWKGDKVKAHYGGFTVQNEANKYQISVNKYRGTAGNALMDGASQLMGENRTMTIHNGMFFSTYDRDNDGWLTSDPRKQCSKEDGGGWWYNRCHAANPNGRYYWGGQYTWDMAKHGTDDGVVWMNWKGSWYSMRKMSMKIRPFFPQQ
UniProt P02671, sequence (P02679 other isoform, or with tags, fused parts or gaps limits assumed, chain 3 of 3, further chain): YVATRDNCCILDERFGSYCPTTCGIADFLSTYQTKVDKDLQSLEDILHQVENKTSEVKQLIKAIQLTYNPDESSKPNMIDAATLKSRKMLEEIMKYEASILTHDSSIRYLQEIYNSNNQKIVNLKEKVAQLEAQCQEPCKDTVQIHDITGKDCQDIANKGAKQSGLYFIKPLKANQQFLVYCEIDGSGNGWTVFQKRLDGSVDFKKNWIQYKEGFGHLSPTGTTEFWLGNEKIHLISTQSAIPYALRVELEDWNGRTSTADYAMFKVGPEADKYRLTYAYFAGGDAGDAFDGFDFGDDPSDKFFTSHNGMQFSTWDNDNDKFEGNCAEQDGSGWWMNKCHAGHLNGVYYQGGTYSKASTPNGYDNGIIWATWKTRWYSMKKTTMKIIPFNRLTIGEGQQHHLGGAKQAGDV
UniProt P02769, sequence (P02769 25-607 limits assumed): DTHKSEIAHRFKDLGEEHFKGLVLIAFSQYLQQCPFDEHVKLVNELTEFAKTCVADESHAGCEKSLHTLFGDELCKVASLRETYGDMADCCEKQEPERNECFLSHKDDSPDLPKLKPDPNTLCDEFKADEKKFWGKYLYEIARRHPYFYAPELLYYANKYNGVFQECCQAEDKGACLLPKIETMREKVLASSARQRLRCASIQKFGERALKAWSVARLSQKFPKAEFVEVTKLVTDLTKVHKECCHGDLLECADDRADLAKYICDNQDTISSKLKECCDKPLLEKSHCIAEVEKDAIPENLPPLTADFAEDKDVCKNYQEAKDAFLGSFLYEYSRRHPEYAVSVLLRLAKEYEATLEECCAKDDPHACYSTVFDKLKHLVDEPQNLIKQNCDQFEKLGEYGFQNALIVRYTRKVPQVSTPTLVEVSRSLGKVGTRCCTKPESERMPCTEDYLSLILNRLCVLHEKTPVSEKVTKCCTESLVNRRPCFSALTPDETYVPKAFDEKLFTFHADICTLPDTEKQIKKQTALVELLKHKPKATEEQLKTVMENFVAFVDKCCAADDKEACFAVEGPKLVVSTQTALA

Bovine serum albumin (fraction V, ria grade) (from UniProt P02769 25-607)
eluted phage titre at 0 µg/ml soluble ligand [1]: 76000 cfu/ml
eluted phage titre at 0.1 µg/ml soluble ligand [1]: 70000 cfu/ml
eluted phage titre at 1 µg/ml soluble ligand [1]: 93000 cfu/ml
eluted phage titre at 10 µg/ml soluble ligand [1]: 63000 cfu/ml
eluted phage titre at 100 µg/ml soluble ligand [1]: 64000 cfu/ml
eluted phage titre at 1000 µg/ml soluble ligand [1]: 69000 cfu/ml

Human fibrinogen (from UniProt P02671 20-644; P02675 31-491; P02679 27-437)
eluted phage titre at 0 µg/ml soluble ligand [1]: 76000 cfu/ml
eluted phage titre at 0.1 µg/ml soluble ligand [1]: 44000 cfu/ml
eluted phage titre at 1 µg/ml soluble ligand [1]: 36000 cfu/ml
eluted phage titre at 10 µg/ml soluble ligand [1]: 15000 cfu/ml
eluted phage titre at 100 µg/ml soluble ligand [1]: 3800 cfu/ml
eluted phage titre at 1000 µg/ml soluble ligand [1]: 300 cfu/ml

fibrinogen binding protein encoded from pSE100 (581 aa part of protein FIG of Staphylococcus epidermidis strain HB) (from UniProt O70022 75-656)
phage titre in the last wash (human IgG [2]): 400 cfu/ml
phage titre in the last wash (Vitronectin [3]): < 100 cfu/ml
phage titre in the last wash (Transferrin [4]): 200 cfu/ml
phage titre in the last wash (IgA [5]): 600 cfu/ml
phage titre in the last wash [6]: < 100 cfu/ml
phage titre in the last wash (Collagen type I [7]): 600 cfu/ml
phage titre in the last wash [8]: 800 cfu/ml
phage titre in the last wash (Elastin [9]): 800 cfu/ml
phage titre in the last wash (Fibronectin [10]): 600 cfu/ml
phage titre in the last wash (Human fibrinogen (human) [11]): 11000 cfu/ml
phage titre in the last wash (Lactoferrin [12]): 600 cfu/ml
phage titre in the last wash (α2macroglobulin [13]): 200 cfu/ml
phage titre in the last wash (Pepsin [14]): 180 cfu/ml
phage titre in Eluate pH 1.8 (human IgG [15]): 4400 cfu/ml
phage titre in Eluate pH 1.8 (Vitronectin [16]): 2200 cfu/ml
phage titre in Eluate pH 1.8 (Transferrin [17]): 2400 cfu/ml
phage titre in Eluate pH 1.8 (IgA [18]): 68000 cfu/ml
phage titre in Eluate pH 1.8 [19]: 800 cfu/ml
phage titre in Eluate pH 1.8 (Collagen type I [20]): 1200 cfu/ml
phage titre in Eluate pH 1.8 [21]: 2200 cfu/ml
phage titre in Eluate pH 1.8 (Elastin [22]): 5200 cfu/ml
phage titre in Eluate pH 1.8 (Fibronectin [23]): 24000 cfu/ml
phage titre in Eluate pH 1.8 (Human fibrinogen (human) [24]): 1.4e+07 cfu/ml
phage titre in Eluate pH 1.8 (Lactoferrin [25]): 8200 cfu/ml
phage titre in Eluate pH 1.8 (α2macroglobulin [26]): 2000 cfu/ml
phage titre in Eluate pH 1.8 (Pepsin [27]): 37000 cfu/ml

human IgG (antibody)
eluted phage titre at 0 µg/ml soluble ligand [1]: 76000 cfu/ml
eluted phage titre at 0.1 µg/ml soluble ligand [1]: 62000 cfu/ml
eluted phage titre at 1 µg/ml soluble ligand [1]: 90000 cfu/ml
eluted phage titre at 10 µg/ml soluble ligand [1]: 78000 cfu/ml
eluted phage titre at 100 µg/ml soluble ligand [1]: 73000 cfu/ml
eluted phage titre at 1000 µg/ml soluble ligand [1]: 76000 cfu/ml

From patent US20040209326A1
